Results from patent US20030082740A1, “Histidine proline rich glycoprotein (HPRG) as an anti-angiogenic and anti-tumor agent” (priority 2001, published 2003).
“Also recorded” adds a separate entry of the source.

Key:
HUVEC = experiment: Endothelial cell tube formation on Matrigel; format: cell-based, human; conditions: for Inhibits Angiogenesis (Matrigel® assay): tube formation, concentration not stated
Procedure: Endothelial cells, for example, human umbilical vein endothelial cells (HUVEC) or human microvascular endothelial cells (HMVEC) which can be prepared or obtained commercially, are mixed at a concentration of 2×10^5 cells/mL with fibrinogen (5 mg/mL in phosphate buffered saline (PBS) in a 1:1 (v/v) ratio. Thrombin is added (5 units/ mL final concentration) and the mixture is immediately transferred to a 24-well plate (0.5 mL per well). The fibrin gel is allowed to form and then VEGF and bFGF are added to the wells (each at 5 ng/mL final concentration) along with the test compound. The cells are incubated at 37° C. in 5% CO2 for 4 days at which time the cells in each well are counted and classified as either rounded, elongated with no branches, elongated with one branch, or elongated with 2 or more branches. Results are expressed as the average of 5 different wells for each concentration of compound. Typically, in the presence of angiogenic inhibitors, cells remain either rounded or form undifferentiated tubes (e.g. 0 or 1 branch).
This assay is recognized in the art to be predictive of angiogenic (or anti-angiogenic) efficacy in vivo (Min, H Y et al., Cancer Res. 56: 2428-2433,1996). In an alternate assay, endothelial cell tube formation is observed when endothelial cells are cultured on Matrigel® (Schnaper et al., J. Cell. Physiol. 165:107-118 1995). Endothelial cells (1×10^4 cells/well) are transferred onto Matrigel®-coated 24-well plates, and tube formation is quantitated after 48 hrs. Inhibitors are tested by adding them either at the same time as the endothelial cells or at various time points thereafter. Tube formation can also be stimulated by adding (a) angiogenic growth factors such as bFGF or VEGF, (b) differentiation stimulating agents (e.g.,. PMA) or (c) a combination of these.
HUVEC were seeded onto Matrigel®-coated 96 well plates. Photomicrographs showing results are in FIGS. 4A and 4B.
Endothelial cell tube formation on Matrigel® was stimulated by incubation for 24 hr with FGF-2 (20 ng/ml ), VEGF (20 ng/ml ) and PMA (40 ng/ml ) for 24 hours (FIG. 4A).
Matrigel® tube formation assays in vitro were carried out as described above.

[1] = test system: CAM of an 8-day old chick embryo; experiment: Chick chorioallantoic membrane (CAM) angiogenesis assay; format: in vivo; conditions: inhibitor at 20 μg/ml with bFGF 30 μg/ml; counted 4 days after implantation
Procedure: This assay is performed essentially as described by Nguyen et al. (Microvascular Res. 47:31-40 (1994)). A mesh containing either angiogenic factors (bFGF) or tumor cells plus inhibitors is placed onto the CAM of an 8-day old chick embryo and the CAM observed for 3-9 days after implantation of the sample. Angiogenesis is quantitated by determining the percentage of squares in the mesh which contain blood vessels.
This assay was performed essentially as described by Nguyen et al. (Microvascular Res. 47:31-40 (1994)). […] Angiogenesis was quantitated by counting the number of microvessels that contacted the filter. In this experiment, microvessel were counted 4 days after implantation of the filter.

[2] = test system: angiogenesis stimulated by FGF-2; experiment: Matrigel plug model, angiogenesis stimulated by FGF-2; format: in vivo, mice; conditions: 0.25 μM in plug; 7 days
Procedure: This assay is performed essentially as described by Passaniti et al. (Lab Invest. 67:519-528 (1992). Ice-cold Matrigel® (e.g., 500 μL) (Collaborative Biomedical Products, Inc., Bedford, Mass.) is mixed with heparin (e.g., 50 μg/ml), FGF-2 (e.g., 400 ng/ml) and the compound to be tested. In some assays, bFGF may be substituted with tumor cells as the angiogenic stimulus. The Matrigel® mixture is injected subcutaneously into 4-8 week-old athymic nude mice at sites near the abdominal midline, preferably 3 injections per mouse. The injected Matrigel® forms a palpable solid gel. Injection sites are chosen such that each animal receives a positive control plug (such as FGF-2+ heparin), a negative control plug (e.g., buffer+heparin) and a plug that includes the compound being tested for its effect on angiogenesis, e.g., (FGF-2+heparin+compound). […] Hemoglobin (Hb) levels are determined using Drabkin's solution (e.g., obtained from Sigma) according to the manufacturers' instructions. […] The amount of fluorescence in the dispersed plug, determined fluorimetrically, also serves as a measure of angiogenesis in the plug. […]
In this study, ice-cold Matrigel® (500 μL) was mixed with heparin (50 μg/ml), FGF-2 (400 ng/ml) and the compound to be tested. […] Hemoglobin levels were determined using Drabkin's solution (from Sigma) according to the manufacturers' instructions.

[3] = test system: human umbilical vein endothelial cell (HUVEC); experiment: bFGF-stimulated HUVEC proliferation (MTS); format: cell-based; conditions: 48 hours
Procedure: The ability of the compounds of the invention to inhibit the proliferation of EC's may be determined in a 96-well format. Type I collagen (gelatin) is used to coat the wells of the plate (0.1-1 mg/mL in PBS, 0.1 mL per well for 30 minutes at room temperature). After washing the plate (3× w/PBS), 3-6,000 cells are plated per well and allowed to attach for 4 hrs (37° C./5% CO2) in Endothelial Growth Medium (EGM; Clonetics) or M199 media containing 0.1-2% FBS. The media and any unattached cells are removed at the end of 4 hrs and fresh media containing bFGF (1-10 ng/mL) or VEGF (1-10 ng/mL) is added to each well. Compounds to be tested are added last and the plate is allowed to incubate (37° C./5% CO2) for 24-48 hrs. MTS (Promega) is added to each well and allowed to incubate from 1-4 hrs. The absorbance at 490 nm, which is proportional to the cell number, is then measured to determine the differences in proliferation between control wells and those containing test compounds.
bFGF is used to stimulate human umbilical vein endothelial cell (HUVEC) proliferation. Cells are incubated in the presence of bFGF alone or with added inhibitors of proliferation for 48 hours in a 96 well plate. Proliferation is then measured using the colorimetric reagent, MTS. […]

[4] = test system: Lewis lung adenocarcinoma 3LL cells; experiment: Matrigel plug model, 3LL tumor cell-mediated angiogenesis; format: in vivo, mouse; conditions: concentration not given; FIG. 7 legend
From the text: In this assay, tumor cells, for example 1-5×10^6 cells of the 3LL Lewis lung carcinoma or the rat prostate cell line MatLyLu, are mixed with Matrigel® and then injected into the flank of a mouse following the protocol described in Sec. B., above. A mass of tumor cells and a powerful angiogenic response can be observed in the plugs after about 5 to 7 days. The anti-tumor and anti-angiogenic action of a compound in an actual tumor environment can be evaluated by including it in the plug. Measurement is then made of tumor weight, Hb levels or fluorescence levels (of a dextran-fluorophore conjugate injected prior to sacrifice). To measure Hb or fluorescence, the plugs are first homogenize with a tissue homogenizer.
The methods used in this study were essentially the same as described in Example VI except that 3LL tumor cells were used to stimulate angiogenesis instead of bFGF. Lewis lung adenocarcinoma 3LL cells (10^6 cells/plug) were mixed with cold Matrigel prior to injection. After seven days, the animals are sacrificed by cervical dislocation and the Matrigel® plugs recovered and processed as above.

caspase-3 = experiment: Caspase-3 activity in bFGF-stimulated HUVEC; format: cell-based, human; conditions: rHPRG at 10 and 100 nM, H/P at similar concentrations, relative to HKa
Procedure: The ability of the compounds of the invention to promote apoptosis of EC's may be determined by measuring activation of caspase-3. Type I collagen (gelatin) is used to coat a P100 plate and 5×10^5 ECs are seeded in EGM containing 10% FBS. After 24 hours (at 37° C. in 5% CO2) the medium is replaced by EGM containing 2% FBS, 10 ng/ml bFGF and the desired test compound. The cells are harvested after 6 hours, cell lysates prepared in 1% Triton and assayed using the EnzChek® Caspase-3 Assay Kit #1 (Molecular Probes) according to the manufactures' instructions.
In order to evaluate whether the observed anti-proliferative activity of HPRG was due to an induction of apoptosis, the activity of caspase-3 (an enzyme that is central to several pro-apoptotic pathways) was measured. HUVEC were grown in 100 mm^2 petri dishes in the presence of bFGF or bFGF+HPRG. Cells were extracted and caspase-3 activity measured using a fluorescent substrate.

His-Pro-Pro-His-Gly (HPPHG; printed: His-Pro-Pro-His-Gly) [ATN228]
Inhibits Angiogenesis (Matrigel® assay) (HUVEC): Yes
Inhibits Angiogenesis (Matrigel® assay) (HUVEC; listed as HPPHG): active

His-His-Pro-His-Gly (HHPHG; printed: His-His-Pro-His-Gly) [ATN230]
Inhibits Angiogenesis (Matrigel® assay) (HUVEC): Yes
Inhibits Angiogenesis (Matrigel® assay) (HUVEC; listed as HHPHG): active

APPHG [ATN246]
Inhibits Angiogenesis (Matrigel® assay) (HUVEC): No
Inhibits Angiogenesis (Matrigel® assay) (HUVEC; listed as APPHG): no effect on neovascularization

B1: HPRG: Histidine proline rich glycoprotein; rabbit HPRG has SEQ ID NO:3; applicants' designation ATN-234 (protein, UniProt P04196 19-525, looked up)
Histidine-rich glycoprotein: VSPTDCSAVEPEAEKALDLINKRRRDGYLFQLLRIADAHLDRVENTTVYYLVLDVQESDCSVLSRKYWNDCEPPDSRRPSEIVIGQCKVIATRHSHESQDLRVIDFNCTTSSVSSALANTKDSPVLIDFFEDTERYRKQANKALEKYKEENDDFASFRVDRIERVARVRGGEGTGYFVDFSVRNCPRHHFPRHPNVFGFCRADLFYDVEALDLESPKNLVINCEVFDPQEHENINGVPPHLGHPFHWGGHERSSTTKPPFKPHGSRDHHHPHKPHEHGPPPPPDERDHSHGPPLPQGPPPLLPMSCSSCQHATFGTNGAQRHSHNNNSSDLHPHKHHSHEQHPHGHHPHAHHPHEHDTHRQHPHGHHPHGHHPHGHHPHGHHPHGHHPHCHDFQDYGPCDPPPHNQGHCCHGHGPPPGHLRRRGPGKGPRPFHCRQIGSVYRLPPLRKGEVLPLPEANFPSFPLPHHKHPLKPDNQPFPQSVSESCPGKFKSGFPQVSMFFTHTFPK
neovessel formation (blood vessel number) [1]: capable of inhibiting neovessel formation; also recorded: inhibit angiogenesis
inhibition of angiogenesis (hemoglobin in plug) [2]: completely inhibited angiogenesis; also recorded: inhibit angiogenesis
inhibition of bFGF-stimulated proliferation of HUVEC ([3]; 100 nM, FIG. 2A): almost complete
inhibition of bFGF-stimulated proliferation of HUVEC ([3]; concentration not given, FIGS. 2A, 2B): inhibit proliferation
inhibition of 3LL tumor-mediated angiogenesis [4]: inhibit 3LL tumor-mediated angiogenesis
induction of caspase-3 activity (caspase-3): induction of caspase-3
endothelial cell tube formation on Matrigel (HUVEC; 500 nM, stimulated with FGF-2, VEGF and PMA for 24 hours): almost completely disrupted tube formation; also recorded: inhibition of EC tube formation
